Data as given in publication PMC7943015.

Molecular target: CgYps1 (C. glabrata (endogenous in derivatives of strain BG2))
Assay: co-IP; precleared lysates (6 mg) incubated with anti-CgYps1 antibody-conjugated beads for 12 h at 4°C; blots with anti-CgYps1 and anti-CgPst2; cells untreated or treated with menadione (90 μM for 90 min)

Substance: CgPst2 (from UniProt Q6FM13 1-198) (natural protein)
- amount of CgPst2 co-precipitated in MD-treated against untreated cells: 40 % lower
